Test results reported in US20240043549A1 (ALS THERAPY DEVELOPMENT INSTITUTE, published 2024).

B1: hu5c8 antibody (antibody, human IgG1)
heavy: not shown
VL: DIVLTQSPATLSVSPGERATISCRASQRVSSSTYSYMHWYQQKPGQPPKLLIKYASNLESGVPARFSGSGSGTDFTLTISSVEPEDFATYYCQHSWEIPPTFGGGTKLEIK
notes: Humanized 5c8, IgG1; no full light chain entry is named for it; also called parental antibody hu5c8; hu5c8-IgG1
B2: JB5 antibody (antibody)
heavy: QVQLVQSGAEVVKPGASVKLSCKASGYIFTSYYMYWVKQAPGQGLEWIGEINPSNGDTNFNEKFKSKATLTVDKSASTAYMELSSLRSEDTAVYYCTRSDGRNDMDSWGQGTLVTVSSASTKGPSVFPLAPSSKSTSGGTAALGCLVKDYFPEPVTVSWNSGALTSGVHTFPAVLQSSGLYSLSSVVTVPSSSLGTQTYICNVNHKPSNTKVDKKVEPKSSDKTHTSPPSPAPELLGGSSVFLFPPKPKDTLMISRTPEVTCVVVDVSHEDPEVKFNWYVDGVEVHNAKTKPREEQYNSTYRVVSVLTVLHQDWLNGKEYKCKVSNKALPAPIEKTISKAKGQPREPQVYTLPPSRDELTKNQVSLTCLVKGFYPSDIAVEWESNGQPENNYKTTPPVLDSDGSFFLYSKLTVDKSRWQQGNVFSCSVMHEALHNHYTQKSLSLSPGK
light: DIVLTQSPATLSVSPGERATISCRASQRVSSSTYSYMHWYQQKPGQPPKLLIKYASNLESGVPARFSGSGSGTDFTLTISSVEPEDFATYYCQHSWEIPPTFGGGTKLEIKRTVAAPSVFIFPPSDEQLKSGTASVVCLLNNFYPREAKVQWKVDNALQSGNSQESVTEQDSKDSTYSLSSTLTLSKADYEKHKVYACEVTHQGLSSPVTKSFNRGEC
notes: The text mostly prints the name as 'JBS'; also called JBS (OCR spelling of JB5 in the text); mutant JBS antibody

How the values were obtained:
Assay in all cases: solid phase ELISA, antibody coated, FCGR titrated
[1] = molecular target: T1, low affinity immunoglobulin gamma fc region receptor IIIB (FCGR3B) (CD16b) (human, UniProt O75015 17-200)
T1 construct: Bought recombinant human protein (Santa Cruz Biotechnology); also called FCR3B
T1 chain: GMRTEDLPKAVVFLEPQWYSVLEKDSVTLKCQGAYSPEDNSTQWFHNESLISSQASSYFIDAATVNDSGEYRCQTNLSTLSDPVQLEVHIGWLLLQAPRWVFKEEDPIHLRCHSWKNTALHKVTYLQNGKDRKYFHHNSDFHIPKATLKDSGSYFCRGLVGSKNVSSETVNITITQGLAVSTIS
Description: (§1) The plate was blocked and recombinant human Fe gamma receptor (FCGR) proteins (Santa Cruz Biotechnology, Santa Cruz, California) titrated by 2-fold dilution with a starting concentration of 5 μg/ml. […] After binding and washing, the FCGR was detected using an appropriate FCGR isoform specific murine monoclonal antibody (1000 ng/ml) and a horseradish peroxidase conjugate goat anti-mouse IgG detector antibody.
(§2) The plate was blocked and recombinant human Fe gamma receptor (FCGR) proteins (Santa Cruz Biotechnology, Santa Cruz, California) titrated onto by 2-fold dilution with a starting concentration of 5 μg/ml.

[2] = molecular target: T2, low affinity immunoglobulin gamma fc region receptor IIIA (FCGR3A) (CD16a) (human, UniProt P08637 17-208)
T2 construct: Bought recombinant human protein (Santa Cruz Biotechnology); also called FCR3A
Description: as §1, §2

[3] = molecular target: T3, high affinity Fc region of IgG receptor IA (FCGR1A) (CD64) (human, UniProt P12314 16-292)
T3 construct: Bought recombinant human protein (Santa Cruz Biotechnology)
Description: as §1, §2

[4] = molecular target: T4, low affinity immunoglobulin gamma fc region receptor IIA (FCGR2A) (CD32) (human, UniProt P12318 34-217)
T4 construct: Bought recombinant human protein (Santa Cruz Biotechnology); also called FCGR2A receptor
T4 sequence: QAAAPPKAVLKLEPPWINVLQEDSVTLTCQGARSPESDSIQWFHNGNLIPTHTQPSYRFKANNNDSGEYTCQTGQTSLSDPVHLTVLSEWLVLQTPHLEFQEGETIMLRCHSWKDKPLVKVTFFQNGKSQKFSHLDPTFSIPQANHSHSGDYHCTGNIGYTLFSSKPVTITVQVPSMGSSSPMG
Description: as §1, §2

T2 sequence (P08637 17-208 limits assumed): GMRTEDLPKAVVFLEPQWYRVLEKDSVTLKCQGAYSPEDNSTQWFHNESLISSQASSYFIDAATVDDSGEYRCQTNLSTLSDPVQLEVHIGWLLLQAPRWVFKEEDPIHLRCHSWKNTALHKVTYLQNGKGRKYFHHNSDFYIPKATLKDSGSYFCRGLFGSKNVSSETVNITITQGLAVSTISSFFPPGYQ
T3 sequence (P12314 16-292 limits assumed): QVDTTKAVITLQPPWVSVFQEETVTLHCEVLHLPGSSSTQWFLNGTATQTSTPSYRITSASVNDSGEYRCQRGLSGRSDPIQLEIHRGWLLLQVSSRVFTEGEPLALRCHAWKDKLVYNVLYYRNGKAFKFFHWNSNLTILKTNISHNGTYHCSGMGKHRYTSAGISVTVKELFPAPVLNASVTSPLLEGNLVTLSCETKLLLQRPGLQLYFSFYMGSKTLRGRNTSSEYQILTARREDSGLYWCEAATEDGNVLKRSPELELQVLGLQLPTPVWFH

| Binder | binding result [1] | binding result [2] | binding result [3] | binding result [4] |
| --- | --- | --- | --- | --- |
| B1 | no binding (tested: FCGR titrated from 5 µg/ml) | no binding (tested: FCGR titrated from 5 µg/ml) |  |  |
| B2 | no binding (tested: FCGR titrated from 5 µg/ml) | no binding (tested: FCGR titrated from 5 µg/ml) | no binding (tested: FCGR titrated from 5 µg/ml) | no binding (tested: FCGR titrated from 5 µg/ml) |
